Test results reported in US20210238289A1 (Biogen, published 2021).

Legend:
[1] = target: T1, cynomolgus monkey alpha-4 integrin (cynomolgus monkey, UniProt A0A2K5U6S2 34-970); assay: in vitro binding affinity comparison; method not described
T1 construct: also called cynomolgus alpha-4 integrin

human alpha-4 integrin = target: T2, human alpha-4 integrin (human, UniProt P13612 34-970, limits assumed); assay: as above
T2 construct: also called the human receptor

[2] = target: T3, VLA receptors (alpha-4 integrin) of cynomolgus monkeys in vivo (cynomolgus monkey, UniProt A0A2K5U6S2 34-1032); assay: model-estimated (direct Emax PKPD model) EC50 for the formation of drug-bound VLA in cynomolgus monkeys
T3 construct: whole, on cells; Receptor occupancy measured in dosed animals; also called free VLA receptors
Excerpt: HP1/2 human PKs were projected through allometric scaling on monkey PK parameters (k10, k12, k21 and V1). See Singh, A. P et al. The AAPS Journal, 17(2), 389-399. […] The inherent monkey parameters were directly applied to human including Km, V max and the PD parameters (Eₘ, EC₅₀, E₀ and V). […] See Muralidharan, K. K. et al. Journal of Clinical Pharmacology, 57(8), 1017-1030. The data were integrated using an empirical scaling approach combining the EC₅₀ parameter values obtained in monkeys (m) and humans (h), after adjusting for potency (Kd) differences across species: […]

CD64 (FcγRI) = CD64 (FcγRI) (UniProt P12314 16-288, limits assumed); assay: solution competition SPR (Biacore); construct titrated into receptor, free receptor read on immobilized IgG1 MAb
Protocol: (§1) Binding to Fcγ receptors was analyzed using solution affinity surface plasmon resonance (ref Day E S, Cachero T G, Qian F, Sun Y, Wen D, Pelletier M, Hsu Y M, Whitty A. Selectivity of BAFF/BLyS and APRIL for binding to the TNF family receptors BAFFR/BR3 and BCMA. Biochemistry. 2005 Feb. 15; 44(6):1919-31.) The method utilizes conditions of so-called “mass-transport-limited” binding, in which the initial rate of ligand binding (protein binding to the senor chip) is proportional to the concentration of ligand in solution (ref BIApplications Handbook (1994) Chapter 6: Concentration measurement, pp 6-1-6-10, Pharmacia Biosensor AB). Under these conditions, binding of the soluble analyte (protein flowing over chip surface) to the immobilized protein on the chip is fast compared to the diffusion of the analyte into the dextran matrix on the chip surface. Therefore, the diffusion properties of the analyte and the concentration of analyte in solution flowing over the chip surface determine the rate at which analyte binds to the chip. In this experiment, the concentration of free Fc receptor in solution is determined by the initial rate of binding to a CM5 Biacore chip containing an immobilized IgG1 MAb. Into these Fc receptor solutions were titrated the stability engineered constructs (see Table 10.1 below). […] Initial binding rates were obtained from raw sensorgram data (FIG. 14). […] The results are shown in Table 10.1 and reported as the average of two titrations.

CD16 (FcγRIIIa V158) [3] = target: T4, CD16 (FcγRIIIa V158) (UniProt P08637 17-208); assay: solution competition SPR (Biacore)
T4 construct: V158 allotype as printed
Protocol: as §1

CD16 (FcγRIIIa V158) [4] = target: T4, CD16 (FcγRIIIa V158); assay: solution competition SPR (Biacore); construct titrated into receptor, free receptor read on immobilized IgG1 MAb
Protocol: as §1

CD16 (FcγRIIIa V158) [5] = target: T4, CD16 (FcγRIIIa V158); assay: solution competition SPR (Biacore); text value differing from the table (100.2)
Protocol: Binding to Fcγ receptors was analyzed using solution affinity surface plasmon resonance (ref Day E S, Cachero T G, Qian F, Sun Y, Wen D, Pelletier M, Hsu Y M, Whitty A. Selectivity of BAFF/BLyS and APRIL for binding to the TNF family receptors BAFFR/BR3 and BCMA. Biochemistry. 2005 Feb. 15; 44(6):1919-31.) The method utilizes conditions of so-called “mass-transport-limited” binding, in which the initial rate of ligand binding (protein binding to the senor chip) is proportional to the concentration of ligand in solution (ref BIApplications Handbook (1994) Chapter 6: Concentration measurement, pp 6-1-6-10, Pharmacia Biosensor AB). Under these conditions, binding of the soluble analyte (protein flowing over chip surface) to the immobilized protein on the chip is fast compared to the diffusion of the analyte into the dextran matrix on the chip surface. Therefore, the diffusion properties of the analyte and the concentration of analyte in solution flowing over the chip surface determine the rate at which analyte binds to the chip. In this experiment, the concentration of free Fc receptor in solution is determined by the initial rate of binding to a CM5 Biacore chip containing an immobilized IgG1 MAb. Into these Fc receptor solutions were titrated the stability engineered constructs (see Table 10.1 below). […] Initial binding rates were obtained from raw sensorgram data (FIG. 14). […]

| fold weaker affinity than to the human receptor [1] [fold] | fold higher affinity than natalizumab Fab fragment (human alpha-4 integrin) [fold] | IC50 (CD64 (FcγRI)) [µM] | Binder | further results |
| --- | --- | --- | --- | --- |
| ~5 | > 19 |  | HP1/2 H1/L3 huIgG4P agly (N297Q, EU Numbering)/IgG1 chimera (antibody, V domains shown, also called BIIB107; HP1/2 G4P agly/G1) VH: EVQLVQSGAEVKKPGATVKISCKASGFNIKDTYMHWVQQAPGKGLEWMGRIDPASGDTKYDPKFQVRVTITADTSTDTAYMELSSLRSEDTAVYYCADGMWVSTGYALDFWGQGTLVTVSS VL: SIVMTQSPDSLAVSLGERATINCKASQSVTNDVAWYQQKPGQPPKLLIYYASNRYTGVPDRFSGSGYGTDFTFTISSLQAEDVATYFCQQDYSSPYTFGQGTKVEIKR | fold higher affinity than natalizumab intact (human alpha-4 integrin): ~5 fold; EC50 [2]: 4.73 ng/mL |
| ~6 | ~6 |  | HP1/2 Fab fragment (Fab, V domains shown) VH: EVQLVQSGAEVKKPGATVKISCKASGFNIKDTYMHWVQQAPGKGLEWMGRIDPASGDTKYDPKFQVRVTITADTSTDTAYMELSSLRSEDTAVYYCADGMWVSTGYALDFWGQGTLVTVSS VL: SIVMTQSPDSLAVSLGERATINCKASQSVTNDVAWYQQKPGQPPKLLIYYASNRYTGVPDRFSGSGYGTDFTFTISSLQAEDVATYFCQQDYSSPYTFGQGTKVEIKR |  |
|  |  | 1420 | CN578 (hu5c8 IgG1 T299K, aglycosylated) (antibody, N-terminal Q largely converted to pyroglutamic acid (mass spectrometry), Mass spectrometry assigns HC 1-447, which fits VH (118) + IgG1 CH1 (98) + Fc moiety (231); also called aglycosylated IgG1 A299K) heavy: not shown light: DIVLTQSPATLSVSPGERATISCRASQRVSSSTYSYMHWYQQKPGQPPKLLIKYASNLESGVPARFSGSGSGTDFTLTISSVEPEDFATYYCQHSWEIPPTFGGGTKLEIKRTVAAPSVFIFPPSDEQLKSGTASVVCLLNNFYPREAKVQWKVDNALQSGNSQESVTEQDSKDSTYSLSSTLTLSKADYEKHKVYACEVTHQGLSSPVTKSFNRGEC | IC50 (CD16 (FcγRIIIa V158) [3]): 1320 µM |
|  |  | 9.64 | IgG1 control antibody (hu5c8 IgG1, glycosylated) (antibody, also called IgG1 wild type) heavy: not shown light: DIVLTQSPATLSVSPGERATISCRASQRVSSSTYSYMHWYQQKPGQPPKLLIKYASNLESGVPARFSGSGSGTDFTLTISSVEPEDFATYYCQHSWEIPPTFGGGTKLEIKRTVAAPSVFIFPPSDEQLKSGTASVVCLLNNFYPREAKVQWKVDNALQSGNSQESVTEQDSKDSTYSLSSTLTLSKADYEKHKVYACEVTHQGLSSPVTKSFNRGEC | IC50 (CD16 (FcγRIIIa V158) [4]): 100 µM; IC50 (CD16 (FcγRIIIa V158) [5]): 105 µM |
